From US20180265915A1, “TRANSCRIPTION FACTOR DECOYS” (priority 2008, published 2018)
Entries after “also recorded” stand apart in the source; their conditions may differ. {P} = phosphate

Experiments:
[1] = system: Staphylococcus aureus EMRSA 16; test: Mouse sepsis model, tissue burden study; assay type: in vivo
Description: The mouse sepsis study was performed by Euprotec (UK). Mice used in this study, male CD1 mice were supplied by Charles River (Margate UK) and were specific pathogen free (16-18 g at delivery). All mice weighed 22-25 g at the beginning of the experiment.
For the tissue burden study, animals were treated in groups of 8 mice per treatment group, therefore 48 in total for the study. 2×10 ml cultures of Staphylococcus aureus EMRSA 16 were prepared and placed on orbital shaker (220 rpm) overnight at 37° C. The following day, the Staphylococcus aureus EMRSA 16 cultures were removed from shaker, pelleted and washed twice before being resuspended in saline to an OD of 0.132 (1.5×10^8 cfu/ml). This stock solution of Staphylococcus aureus EMRSA 16 was then further diluted 1:1.5 in saline (1×10^8 cfu/ml) i.e. 2.0×10^7 bacteria per mouse. 48 mice were then infected with 0.2 ml of the 1.0×10^8/mL suspension. The number of Staphylococcus aureus EMRSA 16 bacteria per mL in the remainder of the suspensions after inoculation was also counted to confirm infection load. Mice were treated 1, 9 and 17 hours post infection with either compound or vehicle, though vancomycin was only administered after 1h. The treatments were as previously a mixture of TFD/DOTAP/Lysostaphin using a concentration of InM/kg TFD in a 5:1 molar ratio with DOTAP and 63 μg/kg Lysostaphin. After 25 hours post infection all animals were weighed and then euthanized. The kidneys were immediately removed and homogenised in ice cold sterile phosphate buffered saline+0.05% Tween 80. Organ homogenates were quantitatively cultured onto CLED agar and incubated at 37° C. for up to 3 days and colonies counted. The data from the culture burdens was analysed by the Kruskal-Wallis test using Stats Direct.

E. coli = test: FabB TFD growth assay with cerulenin in LB, polymixin co-transfectant; assay type: cell-based, Escherichia coli
Description: For example, a FabB decoy which targets the regulation of genes essential for fatty acid synthesis may be tested against suitable strain, e.g. E. coli grown in e.g. Luria-Bertani LB media (1% [w/v] Bacto-tryptone, 0.5% [w/v] Yeast extract, 1% [w/v] NaCl) in the presence of an antibiotic which acts on the process of fatty acid synthesis, e.g. Cerulenin.
The effect of TFDs on the growth of E. coli bacterial cultures was measured as described in Example 4.1 with a few modifications: the media used was LB; the co-transfectant used was 40 nM polymixin, rather than gramicidin; the media was also supplemented with 10 μg/ml Cerulenin (CER). CER is an antibiotic that acts on fatty acid synthesis.

K. pneumoniae = test: KP_Sig TFD growth assay in vitro; assay type: cell-based, Klebsiella pneumoniae; conditions: PCR_TFD, transfected using a cell penetrating peptide
Excerpt: Cells were transfected as described in Example 13, using a cell penetrating peptide. […] The two controls used were: untreated cells (K. pneumoniae) and a control TFD consisting of a scrambled sequence.

S. aureus = test: Growth of S. aureus transfected by electroporation under conditions of stress; assay type: cell-based, Staphylococcus aureus; conditions: BHI or LB media with 30 mM KOH, vs mock-electroporation or unrelated sequence
Description: For example, stress response can be induced in a suitable strain e.g. S. aureus by growing in, e.g. LB media under conditions of stress, e.g. alkali conditions. For example LB media containing KOH, e.g. at 30 mM may be used. Untreated bacteria grow well in this media, due to the induction of the stress response by the alkali conditions, whereas those treated with the SA_sigB decoy, targeting the regulation of sigB which is a major part of the regulatory response to stress, grow poorly.
Decoy polynucleotides were transfected into S. aureus by electroporation. Bacterial cells were prepared by standard methods. Briefy, cells were grown to early exponential phase in LB media at 37° C. as defined as reaching an Absorbance of 0.3 at […]. The cells were chilled to 4° C. and harvested by low speed centrifugation and washed three times in a similar volume of sterile, ice-cold 10% (v/v) glycerol. Finally the cells were resuspended in a tenth of their original volume in 10% glycerol. […] 200 μl of cells were aliquoted into wells of a 96 well plate that was incubated at 37° C. with moderate shaking, growth was monitored by measuring absorbance.

EMRSA-16 = test: WalR_TFD in vitro growth and viable count assays on EMRSA-16; assay type: cell-based, Staphylococcus aureus; conditions: for effect on growth of EMRSA-16 in vitro: 1 nM TFD, DOTAP, Lysostaphin, BHI
Description: S. aureus EMRSA16 cultures were grown and maintained in BHI media (Becton Dickenson). Frozen stocks were prepared by mixing equal volumes of a culture in early exponential growth (OD of 0.3 at A600) with 50% glycerol and freezing at −80° C.
TFD-DOTAP complexes were formed by mixing 1 ug of TFD with 2 μg of DOTAP (Roche) and incubating at room temperature for 10 min on the bench. The TFD complex was then mixed with inoculated medium supplemented with 10 ng/ml Lysostaphin (Sigma; L9043), aliquoted into 96 well flat-bottomed plates and growth was analysed by culturing at 37° C. with shaking in a BioTek plate reader.
EMRSA-16, an MRSA strain endemic in UK hospitals, was used in the study (Cox, Mallaghan et al. 1995). TFDs were mixed with a commercially available lipid formulation, DOTAP, and mixed with media inoculated with EMRSA-16 and Lysostaphin. Lysostaphin is a lysozyme agent that acts on the walls of S. aureus, use of it in this experiment was to thin the outer peptidoglycan layer of the bacteria and allow the TFD to transfect the cell following fusion of the DOTAP carrier with the exposed inner membrane of the bacterium. […] The bacteria that were not killed by WalR_TFD treatment were sub-cultured in order to determine whether there was any incidence of resistance. The process was repeated a total of four times and both the reduction in viable counts (FIG. 17B) and in vitro growth curves were recorded (FIG. 17C, black squares: bacteria in fourth passage).
In order to determine whether TFDs killed bacteria on contact or needed prolonged exposure to work, EMRSA-16 were transfected with 1 nM WalR_TFD/DOTAP complex and incubated for 30 minutes before being microdiluted into fresh media, without any TFD complexes or Lysostaphin.

EMRSA15 = test: DB-TFD growth assay on EMRSA15 with Lysostaphin co-treatment; assay type: cell-based, Staphylococcus aureus; conditions: 10 nM DB-TFD; 0.5 to 2.5 pg/ml Lysostaphin
Description: Growth assays were performed as described for Example 7.1 with the sole difference being that the media was supplemented with between 0.5 and 2.5 pg/ml Lysostaphin instead of Gramicidin. Lysostaphin is a lysozyme-like enzyme that is specific for the walls of S. aureus.

[2] = system: clinically-isolated MRSA strain MRSA-5; test: Dumbbell Sig TFD growth assay on a clinically-isolated MRSA strain; assay type: cell-based, Staphylococcus aureus; conditions: 10 nM TFD, dumbbell configuration
Description: A growth assay was performed as described in Example 5.1 using the Sig TFD in its dumbbell configuration and a clinically-isolated MRSA strain.

[3] = statistical analysis of in vivo results

With `CN[C@H](CC(C)C)C(=O)N[C@H]1C(=O)N[C@@H](CC(N)=O)C(=O)N[C@H]2C(=O)N[C@H]3C(=O)N[C@H](C(=O)N[C@H](C(=O)O)c4cc(O)cc(O)c4-c4cc3ccc4O)[C@H](O)c3ccc(c(Cl)c3)Oc3cc2cc(c3O[C@@H]2O[C@H](CO)[C@@H](O)[C@H](O)[C@H]2O[C@H]2C[C@](C)(N)[C@H](O)[C@H](C)O2)Oc2ccc(cc2Cl)[C@H]1O` [Vancomycin, vancomycin, reference compound] the “Kruskal-Wallis all pairwise comparisons (Dwass-Steel-Chritchlow-Fligner) of kidney burden, versus Vehicle” value [1, 3] was 0.0173.

In the case of `C/C=C/C/C=C/CCC(=O)[C@H]1O[C@H]1C(N)=O` [cerulenin, reference compound], the “effect of cerulenin on growth of E. coli” value (E. coli; 10 μg/ml Cerulenin) is reported as “no noticeable effect on growth” and the “cerulenin concentration at which it begins to inhibit cell growth” value (E. coli; in the presence of the control TFD) is reported as 20 µg/mL.

With “KP_Sig: sigma 54 binding site from the K. pneumoniae glnA promoter, SEQ ID NO: 59, in a PCR_TFD (DNA TGGCACAGATTTCGCT; listed as DNA, chemistry not fully specified; listed as Klebsiella pneumoniae)” the “effect on K. pneumoniae cell growth in vitro” value (K. pneumoniae) was “prevented cell growth in vitro” and the “effect on K. pneumoniae cell growth in vitro” value (K. pneumoniae; listed as KP_Sig TFD) was “kills K. pneumoniae in vitro”.

For “LytM TFD: YycG/YycF binding site in LytM promoter, SEQ ID NO: 7 (DNA GCTATTTTGTAATGACAATGTAATGAGTTTAGTAAAAA; transcription factor decoy, made by PCR or oligonucleotide ligation, further chemistry not given here; listed as Staphylococcus aureus)”, the “growth of S. aureus under conditions of stress” value (S. aureus) was “capable of slowing the growth”.

B1: Scr_TFD: TFD containing a scrambled version of the WalR binding site, SEQ ID NOs: 46 & 47 (nucleic acid, listed as Staphylococcus aureus)
chain 1: CTTGGTTTTTCCAAGGTAATATGACAAGATTGTAAATGACCTAGTTGAGAGATGCCA
chain 2: CCCTCTTTTTGAGGGTGGCATCTCTCAACTAGGTCATTTACAATCTTGTCATATTAC
modifications: dumbbell structure, further chemistry not given here
In the case of B1, the “Kruskal-Wallis all pairwise comparisons (Dwass-Steel-Chritchlow-Fligner) of kidney burden, versus 1 nM WalR_TFD” value [1, 3] is reported as 0.0043, the “Kruskal-Wallis all pairwise comparisons (Dwass-Steel-Chritchlow-Fligner) of kidney burden, versus Vancomycin” value [1, 3] is reported as 0.0062 and the “Kruskal-Wallis all pairwise comparisons (Dwass-Steel-Chritchlow-Fligner) of kidney burden, versus Vehicle” value [1, 3] is reported as 0.7804. The “effect on growth of EMRSA-16 in vitro” value (EMRSA-16) was “no detectable effect on bacterial growth” and the “inhibition of bacterial growth of EMRSA15” value (“inhibition … of EMRSA15” for short) (EMRSA15) was “no effect”.

B2: WalR_TFD: dumbbell TFD containing the binding site for the WalR protein as in the lytM promoter, SEQ ID NOs: 48 & 49 (nucleic acid, listed as Staphylococcus aureus)
chain 1: CTTGGTTTTTCCAAGTAATGAATGAGTTTAAAGCCCATGTAAAAGGGGTATCAGTAC
chain 2: CCCTCTTTTTGAGGGGTACTGATACCCCTTTTACATGGGCTTTAAACTCATTCATTA
modifications: dumbbell structure, further chemistry not given here
With B2 the “reduction in kidney burden of EMRSA-16” value ([1]; mice, systemic injection 1, 9 and 17 hours post infection, 1 nM TFD complex, compared to Scr_TFD control) was “as effective as vancomycin in killing EMRSA-16”, the “Kruskal-Wallis all pairwise comparisons (Dwass-Steel-Chritchlow-Fligner) of kidney burden, versus Vancomycin” value [1, 3] was 0.2549 and the “Kruskal-Wallis all pairwise comparisons (Dwass-Steel-Chritchlow-Fligner) of kidney burden, versus Vehicle” value [1, 3] was 0.0062. For the same molecule, the “effect on growth of EMRSA-16 in vitro” value (EMRSA-16) was “prevented growth of EMRSA-16”, the “growth after limited contact” value (EMRSA-16; 1 nM, incubated 30 minutes then diluted into fresh media without TFD or Lysostaphin, followed 48 hours) was “unable to grow; also recorded: no growth was observed” and the “total viable counts, reduction in number of living cells” value (EMRSA-16; after in vitro growth experiment) was “reduced the number of living cells by five-fold orders of magnitude”. The “bacteriocidal activity against MRSA” value (EMRSA-16; in vitro and in vivo) was “rapid bacteriocidal activity at nanomolar concentrations”, the “development of resistance to TFD-mediated killing” value (EMRSA-16; surviving bacteria sub-cultured and re-treated, repeated rounds) was “No resistance mechanism has been detected; also recorded: no evidence for the development of a resistance mechanism” and the “inhibition … of EMRSA15” value (EMRSA15) was “prevents growth of EMRSA15”.

B3: SA3 TFD: Sig dumbbell TFD from phosphorylated oligonucleotides SEQ ID NOs: 40 & 41 (nucleic acid, listed as Staphylococcus aureus)
chain 1: CTTGGTTTTTCCAAGGAAGATTAGAAATTATTTCGATGGGTATATAATA
chain 2: CCGTCTTTTTGACGGTATTATATACCCATCGAAATAATTTCTAATCTTC
modifications: 5' {P}, sugars by position and backbone not given here; further chemistry not fully specified
With B3 the “inhibition of cell growth of clinically-isolated MRSA strain” value [2] was “repress the growth” and the “inhibition … of EMRSA15” value (EMRSA15) was “capable of inhibiting bacterial growth”.
